Test results published in the nanobody polyreactivity screen of Harvey et al. (2022).

Assay: yeast display, Sf9 membrane polyspecificity reagent, FACS + sequencing; frameworks hold sequencing errors
Summary of the method: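 After 36–48 hours of galactose induction, yeast (Saccharomyces cerevisiae BJ5465) displaying a synthetic nanobody library were stained at 4 °C for 1 hour with 10% biotinylated, detergent-solubilized Sf9 membrane reagent. Streptavidin microbeads enriched the stained cells before FACS sorting into low and high (top ~1%) gates on anti-HA and streptavidin fluorescence. Each clone's polyreactivity label reflects its gate of origin.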

Sequence | polyreactivity (PSR sort gate)
QVQLVESGGCLVQAGGSLRLSCAASGSTINSYAMGCYRQAPGKERELVAAITWIGGNTYYADSVKGRFTISRDNSKNTVYLQMTSLKPEDTAVYYCGADEYFEYYYWGQGTQVTVSS | low polyreactivity
QVQLVESGGGLVQAGGSLRLRCAASGFIFARYAMGWYRQAPGKERELVAAITWSGDSTYYAYSVKGRFTISRDNAKYTVYLQMNSLKPEDTAVYYCYPVSGYAKYDYWGQGTQVTVSS | low polyreactivity
QVQLVESGGGLVQAGGSLRLSCAASGSIFGAYTMGWYRQAPGKERELVAAITGGGITNYADSVKGRFTISRDNAKNTVYLQMNSLKPEDTAVYYCNAGYPPQTVVVGYDYWGQGTQVTVSS | low polyreactivity
QVQLVESGGGLLQAGGSLRLSCAASGITFYYNTMGWYRQAPGKERELVASISGGCSTYYADSVKGRFTISRDNAKNTVFLQMKSLIPEDTAVYYCNAQGSLFRGWFDYDYWGQGTQVTVSS | low polyreactivity
QVQLVESGGGLVQAGGSLRLSCAASGSTFFDYAMGWYRQAPGKERELVAAISRSGDTNYADSVKGRFTISRDNAKNTVYLQMNSLKPEDTAVYYCAKDWAYRRHWVGFYYWGQGTQVTVSS | low polyreactivity
QVQLVESGGGLVQAGGSLRLSCAASGFTFSSNGMGWYRQAPGKERELVAAITRRGGSTYYADSVKGRFTISRDNAKNTVYLQMNSLKPEDTAVYYCAARRSGTYYGTYKSNGRNYWGQGTQVTVSS | high polyreactivity
QVQLVESGGGLVQAGGSLRLSCAASGYIFRYYAMGWYRQAPGKEREFVAAISRNGGSTYYADSVKGRFTISRDNAKNTVYLQMNSLKPEDTAVYYCNKRVGFLYKYDYWGQGTQVTVSS | high polyreactivity
QVQLVESGGGLVQAGCSLRFSSAASGRISNYPMGWYRQPPGKERELVAAITWSGGSTYADSVKGRFTISRDNAKNTVYLQMNSLKPEDTAVYYWAARGTRYWDYRYYAYNYWGQGTQVTVSS | high polyreactivity
QVQLVESGGGLVQAGGSLRLSCAASGRIFKYYGMGWYRQAPGKERELVAAISRGSSTNYADSVKGRFTISRDNAKNTVYLQMNSLKPEDTAVYYCAVSLRRGGSGYAYDYWGQGTQVTVSS | high polyreactivity
QVQLVESGGGLVQAGGSLRLSCAASGSISPQNVMGWYRQAPGKERELVAAITGGGSTNYADSVKGRFTISRDNAKNTVYLQMNSLKPEDTAVYYCAVYRRYLPYDYWGQGTQVTVSS | low polyreactivity
QVQLVESGGGLVQAGGSLRLSCAASGYIFGWYDMGWYRQAPGKERELVAAIDSGGNTYYADSVKGPFTISRDNAKNTVYLQMNSLKPEDTAVYYCNADYWGWSGPPYEYWGQGTQVTVSS | high polyreactivity
QVQLVESGGGLVQAGGSLRLSCAASGSIFGYYALGWSRQAPGKERELVAVITWNTGNTYYADSVKGRFTISRDNAKNTVYLEMNSLKPEDTAVYYCAADQTGWGDTYDYWGQGTQVTVSS | low polyreactivity
QVQLVETGGGLVQAGGSLRLSCAASGNHFSTYTMGGYRQAPGKERELVAAISTSGTSTYYADSVKGRFTISRDNAKNTVYLQMNSLKPEDTAVYYCAASYLRSSQRMDYWGQGTQVTVSS | low polyreactivity
QVQLVESGGGLVQAGGSLRLSCAASGFTFGSYAMGWYRQAPGKERELVAAISGRGGSTYYADSVKGRFTISRDNAKNTVYLQMNSLKPEDTAVYYCATDYSRTFDYWGQGTQVTVSS | high polyreactivity
QVQLVESGGGLVQAGGSLRLSCAASGSTFNSYAMGWYRQAPGKERELVAAISRSGGRTYYADSVKGRFTISRDNAKNNVYLQMSSMKPEDTAVYYCAAVHNANRGYPFEYWGQGTQVTVSS | high polyreactivity
QVQLVESGGGLVQAGGSLRLSCAASGRIFSLNTLGWYRQAPGKERELVAAINRGGRSYYADSVKGRFTISRDNAKITVNLQMNSLKPEDTAVYYCAAEVVRQGSYRYGYWGQGTQVTVSS | high polyreactivity
QVQLVESGGGLVHAGGTLRLSCAASGGIFYHYTMGWYRQAPGKERELVASIRVSGGRTYNADSVTGRFTISRDNAKNTVYLQMNSLKPQDSAVYFCNARGSWYQPTYDYWGQGTQVTVSS | high polyreactivity
QVQLVESGGGLVQAGGSLRLSCAASGSILYVYDMGWYRQAPGNERELVATITGRVVSTNYADSVKGRFTISRDNAKNTVYLQMNSLKPEDTAVYYCAARTRRRRGEYDYWGQGTQVTVSS | high polyreactivity
QVQLVESGGGLVQAGGSLRLSCAASGRIFNPNAMGWYRQAHGKESELVAAISGSGGSTYYADSVKGRFTISRDNAKNTVNLQMNSLKPEDTAVYYCNKLLSQRRYHSEMDYWGQGTQVTVSS | high polyreactivity
QVQLVESRGGIVQAGGSLRLSCAASGFTFYFYAKGWYRQAPGKERELVAGISRGSRTNYADSVKGRFTISRDNAKNTVYLQMNSLKPEDTAVYYCAAEVSYWGLGTQVTVSS | low polyreactivity
QVQLVESGGGLVQAGGSLRLSCAASGRTFRWYTMGWYRQAPGKEREFVAAITWSGSSTNYADSVKGRFTISRDNEKNTVYLQMNSLKPEDTAFYYCAAENRRRRDDYWGQGTQVTVSS | high polyreactivity
QVQLVESGGGLVQAGGTLRLSCAASGRIFTHNAMGWYRQAPGKERELVAAITSGGRTTYADSVKGRFTISRDNAKNTVYLQMNSLKPEDTAVYYCNADTGLGSLDFDKRDYWGQGTQVNVSS | low polyreactivity
